From US20230416335A1

What was measured:
[1] = biological target: … (SEQ ID NO: 1)-HLA-A*02 complex (human); assay: cell-based or functional assay
[2] = biological target: … (SEQ ID NO: 1)-HLA-A*02 complex (human); assay: SPR (BIAcore) or BLI (Octet) per Example 3, immobilised biotinylated pHLA, 25 C

EC50 (mel624), IFN-γ ELISPOT, T cell activation [1] | Kd [2] | t1/2 [2] | Binder
0.0275 nM | 0.138 nM | 6.38 h | ImmTAC molecule a79b64 (TCR-anti-CD3 fusion) (TCR, part only; not given: anti-CD3 scFv, linker, constant regions, not shown: a dimerising Fc or GST) TCR alpha, part: GDAKTTQPNSMESNEEEPVHLPCNHSTISGTDYIHWYRQLPSQGPEYVIHGLTSNVNNRMASLAIAEDRKSSTLILHRATLRDAAVYYCILILGHSRLGNYIATFGKGTKLSVIP TCR beta, part: DGGITQSPKYLFRKEGQNVTLSCEQNLNHDAMYWYRQDPGQGLRLIYYSQIMNDEQKGDIAEGYSVSREKKESFPLTVTSAQKNPTAFYLCASSWWTGGSAPIRFGPGTRLTVT
0.0106 nM | 0.0231 nM | 28.7 h | ImmTAC molecule a79b58 (TCR-anti-CD3 fusion) (TCR, part only; not given: anti-CD3 scFv, linker, constant regions, not shown: a dimerising Fc or GST) TCR alpha, part: GDAKTTQPNSMESNEEEPVHLPCNHSTISGTDYIHWYRQLPSQGPEYVIHGLTSNVNNRMASLAIAEDRKSSTLILHRATLRDAAVYYCILILGHSRLGNYIATFGKGTKLSVIP TCR beta, part: DGGITQSPKYLFRKEGQNVTLSCEQNLNHDAMYWYRQDPGQGLRLIYYSQIMGDEQKGDIAEGYSVSREKKESFPLTVTSAQKNPTAFYLCASSWWTGGSSPISFGPGTRLTVT
0.012 nM | 0.079 nM | 8.9 h | ImmTAC molecule a28b58 (TCR-anti-CD3 fusion) (TCR, part only; not given: anti-CD3 scFv, linker, constant regions, not shown: a dimerising Fc or GST) TCR alpha, part: GDAKTTQPNSMESNEEEPVHLPCNHSTISGTDYIHWYRQLPSQGPEYVIHGLTSNVNNRMASLAIAEDRKSSTLILHRATLRDAAVYYCILILGHSRAGNYIATFGKGTKLSVIP TCR beta, part: DGGITQSPKYLFRKEGQNVTLSCEQNLNHDAMYWYRQDPGQGLRLIYYSQIMGDEQKGDIAEGYSVSREKKESFPLTVTSAQKNPTAFYLCASSWWTGGSSPISFGPGTRLTVT
0.00955 nM | 0.0533 nM | 12.5 h | ImmTAC molecule a79b74 (TCR-anti-CD3 fusion) (TCR, part only; not given: anti-CD3 scFv, linker, constant regions, part only) TCR alpha, part: GDAKTTQPNSMESNEEEPVHLPCNHSTISGTDYIHWYRQLPSQGPEYVIHGLTSNVNNRMASLAIAEDRKSSTLILHRATLRDAAVYYCILILGHSRLGNYIATFGKGTKLSVIP TCR beta, part: DGGITQSPKYLFRKEGQNVTLSCEQNLNHDAMYWYRQDPGQGLRLIYYSQIMGDEQKGDIAEGYSVSREKKESFPLTVTSAQKNPTAFYLCASSWWTGGASPIRFGPGTRLTVT
0.0138 nM | 0.0779 nM | 8.6 h | ImmTAC molecule a79b77 (TCR-anti-CD3 fusion) (TCR, part only; not given: anti-CD3 scFv, linker, constant regions, not shown: a dimerising Fc or GST) TCR alpha, part: GDAKTTQPNSMESNEEEPVHLPCNHSTISGTDYIHWYRQLPSQGPEYVIHGLTSNVNNRMASLAIAEDRKSSTLILHRATLRDAAVYYCILILGHSRLGNYIATFGKGTKLSVIP TCR beta, part: DGGITQSPKYLFRKEGQNVTLSCEQNLNHDAMYWYRQDPGQGLRLIYYSQIMGDEQKGDIAEGYSVSREKKESFPLTVTSAQKNPTAFYLCASSWWTGGAAPIRFGPGTRLTVT
0.0243 nM | 0.182 nM | 3.7 h | ImmTAC molecule a28b74 (TCR-anti-CD3 fusion) (TCR, part only; not given: anti-CD3 scFv, linker, constant regions, not shown: a dimerising Fc or GST) TCR alpha, part: GDAKTTQPNSMESNEEEPVHLPCNHSTISGTDYIHWYRQLPSQGPEYVIHGLTSNVNNRMASLAIAEDRKSSTLILHRATLRDAAVYYCILILGHSRAGNYIATFGKGTKLSVIP TCR beta, part: DGGITQSPKYLFRKEGQNVTLSCEQNLNHDAMYWYRQDPGQGLRLIYYSQIMGDEQKGDIAEGYSVSREKKESFPLTVTSAQKNPTAFYLCASSWWTGGASPIRFGPGTRLTVT
0.0229 nM | 0.079 nM | 10.8 h | ImmTAC molecule a79b63 (TCR-anti-CD3 fusion) (TCR, part only; not given: anti-CD3 scFv, linker, constant regions, not shown: a dimerising Fc or GST) TCR alpha, part: GDAKTTQPNSMESNEEEPVHLPCNHSTISGTDYIHWYRQLPSQGPEYVIHGLTSNVNNRMASLAIAEDRKSSTLILHRATLRDAAVYYCILILGHSRLGNYIATFGKGTKLSVIP TCR beta, part: DGGITQSPKYLFRKEGQNVTLSCEQNLNHDAMYWYRQDPGQGLRLIYYSQIVGDEQKGDIAEGYSVSREKKESFPLTVTSAQKNPTAFYLCASSWWTGGSAPIRFGPGTRLTVT
0.0317 nM | 0.261 nM | 2.8 h | ImmTAC molecule a28b60 (TCR-anti-CD3 fusion) (TCR, part only; not given: anti-CD3 scFv, linker, constant regions, not shown: a dimerising Fc or GST) TCR alpha, part: GDAKTTQPNSMESNEEEPVHLPCNHSTISGTDYIHWYRQLPSQGPEYVIHGLTSNVNNRMASLAIAEDRKSSTLILHRATLRDAAVYYCILILGHSRAGNYIATFGKGTKLSVIP TCR beta, part: DGGITQSPKYLFRKEGQNVTLSCEQNLNHDAMYWYRQDPGQGLRLIYYSQIMGDEQKGDIAEGYSVSREKKESFPLTVTSAQKNPTAFYLCASSWWTGGASEISFGPGTRLTVT
0.0398 nM | 0.052 nM | 20.4 h | ImmTAC molecule a79b69 (TCR-anti-CD3 fusion) (TCR, part only; not given: anti-CD3 scFv, linker, constant regions, not shown: a dimerising Fc or GST) TCR alpha, part: GDAKTTQPNSMESNEEEPVHLPCNHSTISGTDYIHWYRQLPSQGPEYVIHGLTSNVNNRMASLAIAEDRKSSTLILHRATLRDAAVYYCILILGHSRLGNYIATFGKGTKLSVIP TCR beta, part: DGGITQSPKYLFRKEGQNVTLSCEQNLNHDAMYWYRQDPGQGLRLIYYSQIMGDEQKGDIAEGYSVSREKKESFPLTVTSAQKNPTAFYLCASSWWTGGSAEIRFGPGTRLTVT
0.0263 nM | 0.047 nM | 12.7 h | ImmTAC molecule a79b67 (TCR-anti-CD3 fusion) (TCR, part only; not given: anti-CD3 scFv, linker, constant regions, not shown: a dimerising Fc or GST) TCR alpha, part: GDAKTTQPNSMESNEEEPVHLPCNHSTISGTDYIHWYRQLPSQGPEYVIHGLTSNVNNRMASLAIAEDRKSSTLILHRATLRDAAVYYCILILGHSRLGNYIATFGKGTKLSVIP TCR beta, part: DGGITQSPKYLFRKEGQNVTLSCEQNLNHDAMYWYRQDPGQGLRLIYYSQIMGDEQKGDIAEGYSVSREKKESFPLTVTSAQKNPTAFYLCASSWWTSGSAPIRFGPGTRLTVT
0.0167 nM | 0.089 nM | 9.16 h | ImmTAC molecule a79b66 (TCR-anti-CD3 fusion) (TCR, part only; not given: anti-CD3 scFv, linker, constant regions, not shown: a dimerising Fc or GST) TCR alpha, part: GDAKTTQPNSMESNEEEPVHLPCNHSTISGTDYIHWYRQLPSQGPEYVIHGLTSNVNNRMASLAIAEDRKSSTLILHRATLRDAAVYYCILILGHSRLGNYIATFGKGTKLSVIP TCR beta, part: DGGITQSPKYLFRKEGQNVTLSCEQNLNHDAMYWYRQDPGQGLRLIYYSQIMGDEQKGDIAEGYSVSREKKESFPLTVTSAQKNPTAFYLCASSPWTGGSAPIRFGPGTRLTVT
0.0172 nM | 0.0118 nM | 58.3 h | ImmTAC molecule a79b76 (TCR-anti-CD3 fusion) (TCR, part only; not given: anti-CD3 scFv, linker, constant regions, not shown: a dimerising Fc or GST) TCR alpha, part: GDAKTTQPNSMESNEEEPVHLPCNHSTISGTDYIHWYRQLPSQGPEYVIHGLTSNVNNRMASLAIAEDRKSSTLILHRATLRDAAVYYCILILGHSRLGNYIATFGKGTKLSVIP TCR beta, part: DGGITQSPKYLFRKEGQNVTLSCEQNLNHDAMYWYRQDPGQGLRLIYYSQIMGDEQKGDIAEGYSVSREKKESFPLTVTSAQKNPTAFYLCASSWWTGGSSPIRFGPGTRLTVT
0.0236 nM | 0.0577 nM | 16.9 h | ImmTAC molecule a79b75 (TCR-anti-CD3 fusion) (TCR, part only; not given: anti-CD3 scFv, linker, constant regions, not shown: a dimerising Fc or GST) TCR alpha, part: GDAKTTQPNSMESNEEEPVHLPCNHSTISGTDYIHWYRQLPSQGPEYVIHGLTSNVNNRMASLAIAEDRKSSTLILHRATLRDAAVYYCILILGHSRLGNYIATFGKGTKLSVIP TCR beta, part: DGGITQSPKYLFRKEGQNVTLSCEQNLNHDAMYWYRQDPGQGLRLIYYSQIMGDEQKGDIAEGYSVSREKKESFPLTVTSAQKNPTAFYLCASSWWTGGSAPISFGPGTRLTVT
0.0134 nM | 0.083 nM | 8.3 h | ImmTAC molecule a28b57 (TCR-anti-CD3 fusion) (TCR, part only; not given: anti-CD3 scFv, linker, constant regions, not shown: a dimerising Fc or GST) TCR alpha, part: GDAKTTQPNSMESNEEEPVHLPCNHSTISGTDYIHWYRQLPSQGPEYVIHGLTSNVNNRMASLAIAEDRKSSTLILHRATLRDAAVYYCILILGHSRAGNYIATFGKGTKLSVIP TCR beta, part: DGGITQSPKYLFRKEGQNVTLSCEQNLNHDAMYWYRQDPGQGLRLIYYSQIMGDEQKGDIAEGYSVSREKKESFPLTVTSAQKNPTAFYLCASSWWTSGASPISFGPGTRLTVT
0.0318 nM | 0.087 nM | 14.9 h | ImmTAC molecule a79b71 (TCR-anti-CD3 fusion) (TCR, part only; not given: anti-CD3 scFv, linker, constant regions, not shown: a dimerising Fc or GST) TCR alpha, part: GDAKTTQPNSMESNEEEPVHLPCNHSTISGTDYIHWYRQLPSQGPEYVIHGLTSNVNNRMASLAIAEDRKSSTLILHRATLRDAAVYYCILILGHSRLGNYIATFGKGTKLSVIP TCR beta, part: DGGITQSPKYLFRKEGQNVTLSCEQNLNHDAMYWYRQDPGQGLRLIYYSQIMGDEQKGDIAEGYSVSREKKESFPLTVTSAQKNPTAFYLCASSWWTGGSAPIYFGPGTRLTVT
0.0231 nM | 0.132 nM | 4.6 h | ImmTAC molecule a79b73 (TCR-anti-CD3 fusion) (TCR, part only; not given: anti-CD3 scFv, linker, constant regions, not shown: a dimerising Fc or GST) TCR alpha, part: GDAKTTQPNSMESNEEEPVHLPCNHSTISGTDYIHWYRQLPSQGPEYVIHGLTSNVNNRMASLAIAEDRKSSTLILHRATLRDAAVYYCILILGHSRLGNYIATFGKGTKLSVIP TCR beta, part: DGGITQSPKYLFRKEGQNVTLSCEQNLNHDAMYWYRQDPGQGLRLIYYSQIMGDEQKGDIAEGYSVSREKKESFPLTVTSAQKNPTAFYLCASSWWTGGAAPISFGPGTRLTVT
0.0139 nM | 0.214 nM | 5.1 h | ImmTAC molecule a28b75 (TCR-anti-CD3 fusion) (TCR, part only; not given: TCR constant regions and anti-CD3 scFv, not shown: a dimerising Fc or GST) TCR alpha, part: GDAKTTQPNSMESNEEEPVHLPCNHSTISGTDYIHWYRQLPSQGPEYVIHGLTSNVNNRMASLAIAEDRKSSTLILHRATLRDAAVYYCILILGHSRAGNYIATFGKGTKLSVIP TCR beta, part: DGGITQSPKYLFRKEGQNVTLSCEQNLNHDAMYWYRQDPGQGLRLIYYSQIMGDEQKGDIAEGYSVSREKKESFPLTVTSAQKNPTAFYLCASSWWTGGSAPISFGPGTRLTVT
0.0601 nM | 0.17 nM | 7.31 h | ImmTAC molecule a109b46 (TCR-anti-CD3 fusion) (TCR, part only; not given: anti-CD3 scFv, linker, constant regions, not shown: a dimerising Fc or GST) TCR alpha, part: GDAKTTQPNSMESNEEEPVHLPCNHSTISGTDYIHWYRQLPSQGPEYVIHGLTSNVNNRMASLAIAEDRKSSTLILHRATLRDAAVYYCILILGHSRLGNYQATFGKGTKLSVIP TCR beta, part: DGGITQSPKYLFRKEGQNVTLSCEQNLNHDAMYWYRQDPGQGLRLIYYSQIMGDEQKGDIAEGYSVSREKKESFPLTVTSAQKNPTAFYLCASSWWTGGSAPIRFGPGTRLTVT
